In assay [1] the target is T1, CODA1237 (Homo sapiens, UniProt P36544, F159M/H163T/I152M/R155K/V154L/W156N/Y151P).
T1 construct: expressed in transfected cells; host or cells: Lenti-X 293T (LX293T, Clontech) stably expressing mutant YFP (H148Q/I152L) reporter
As to the kind of experiment: Anion reporter (YFP quench) plate assay, ligand response of cells expressing CODA1237 compared with CODA71. The settings on record: FIG. 1, various ligand doses. Format: cell-based.

Assay [2] concerns rat model of neuropathic pain. As to the kind of experiment: Spared nerve injury (SNI) rat model of neuropathic pain, mechanical withdrawal threshold. The settings on record: SNI rats injected with AAV.hSYN encoding engineered receptor; repeat IP injection on the third day. The assay is classed as in vivo. As for the experimental part:
The engineered receptors disclosed herein are assessed for their ability to provide analgesia in a rat model of neuropathic pain following administration of a small molecule ligand. AAV expression cassettes containing a human synapsin-1 (hSYN) promoter linked to polynucleotides encoding either a wild type α7-nAChR, or any one of the engineered chimeric receptors disclosed herein are constructed using standard molecular biology techniques.
Behavioral experiments and pain models: To produce mechanical hypersensitivity in a model that mimics a neuropathic pain condition, the spared nerve injury (SNI) model (a validated model of mechanical allodynia) is used (Shields et al., 2003, The Journal of Pain, 4, 465-470). This model is produced by the sectioning of the common peroneal and the sural nerves and isolating the tibial branch. Mechanical withdrawal threshold is assessed by placing rats on an elevated wire-mesh grid and stimulating the plantar surface of the hind paw with von Frey filaments.
Effects of administration: This SNI model is produced by the sectioning of the common peroneal and the sural nerves and isolating the tibial branch of the rat. […] The duration that the rat spends on the rotarod is recorded, with a cut-off at 300 sec. […]

The subject of assay [3] is HEK cells. The experiment in a line: Peak current measurement by manual patch clamp in HEK cells. The assay is classed as cell-based. The following applies: held at −60 mV. As for the experimental part:
Cell culture: HEK 293 cells were routinely subcultured in DMEM with 10% fetal bovine serum (ThermoFisher Scientific). Cells were plated in six-well dishes 24 hours prior to transfection with Fugene 6 (Promega, E2691) and plasmid DNA (total of 1 μg DNA). 24 hours post transfection, cells were replated onto 10 mm PDL and collagen coated coverslips, before being used for patch clamp experiments 24-48 hours later. For dorsal root ganglion neuron experiments, adult rat lumbar ganglia were harvested and dissociated according to standard protocols, cultured on glass coverslips coated with poly-L-lysine and mouse laminin, transduced on DIV1 with ires-GFP-containing lentiviral or AAV6 vectors, and processed for immunocytochemistry on DIV7. For hippocampal neuron experiments, hippocampi were harvested from embryonic day 18 rat pups or postnatal day 0 mouse pups and dissociated according to standard protocols. […]
Whole-cell patch clamp recording protocol: Cells plated on coverslips were visualized at 10× and 40× on an inverted fluorescence microscope (Olympus). […] Traces were either analyzed in Clampfit (Molecular Devices) or using custom Python code. […]
Dose-response experiments: Drug-induced currents were recorded in voltage clamp mode. […]
Background: Patch clamp records ionic current or voltage across a cell membrane.

The test system of assay [4] is HEK cells. As to the kind of experiment: TC-5619 / acetylcholine dose response and peak current of engineered receptors in HEK cells (FIGS. 5C-5F). Format: cell-based. The following applies: for Response to TC-5619 (dose response), compared with CODA71: FIGS. 5C-5E.
Assay [5] deals with HEK cells. The experiment in a line: Peak current measurement on IonFlux in HEK cells. Format: cell-based. The following applies: held at −60 mV. The procedure: HEK 293 cells were routinely subcultured in DMEM with 10% fetal bovine serum (ThermoFisher Scientific). Cells were plated in 15 cm dishes 24 hours prior to transfection with Fugene 6 (Promega, E2691) and plasmid DNA (total of 20 μg DNA). 24 hours post transfection, cells were lifted with Accutase (Sigma, A6964) then resuspended in serum free media (CHO—S-SFM II, ThermoFisher Scientific 12052 with 25 mM HEPES, ThermoFisher Scientific, 15630080) to rest for 30-90 min before being loaded onto IonFlux (Fluxion Biosciences) for experiments. Recordings were made in extracellular solution (ECS) containing (in mM): 140 sodium chloride (S7653), 4 potassium chloride (P9333), 1 magnesium chloride (M2670), 2 calcium chloride (C3881), 10 HEPES (54457), and 10 D-(+)-glucose (G7528) (pH=7.3 with sodium hydroxide, osmolarity=305-315 mOsm). Intracellular solution (ICS) contains (in mM): 140 cesium chloride (289329), 5 potassium fluoride (60238), 2 Calcium chloride (P9333), 2 magnesium chloride (M2670), 10 HEPES (54457), and 10 EGTA (3777) (pH=7.2 with cesium hydroxide, osmolarity=290-295 mOsm).
Drug-induced currents were recorded in ensemble mode (20 cells are patched per recording channel). Cells were held at −60 mV and current across the membrane was recorded at 1 kHz sampling rate. Drugs tested include acetycholine chloride (A6625) and other synthetic compounds. […]

T1 sequence (P36544 with tags, fused parts or gaps Y151P/I152M/V154L/R155K/W156N/F159M/H163T): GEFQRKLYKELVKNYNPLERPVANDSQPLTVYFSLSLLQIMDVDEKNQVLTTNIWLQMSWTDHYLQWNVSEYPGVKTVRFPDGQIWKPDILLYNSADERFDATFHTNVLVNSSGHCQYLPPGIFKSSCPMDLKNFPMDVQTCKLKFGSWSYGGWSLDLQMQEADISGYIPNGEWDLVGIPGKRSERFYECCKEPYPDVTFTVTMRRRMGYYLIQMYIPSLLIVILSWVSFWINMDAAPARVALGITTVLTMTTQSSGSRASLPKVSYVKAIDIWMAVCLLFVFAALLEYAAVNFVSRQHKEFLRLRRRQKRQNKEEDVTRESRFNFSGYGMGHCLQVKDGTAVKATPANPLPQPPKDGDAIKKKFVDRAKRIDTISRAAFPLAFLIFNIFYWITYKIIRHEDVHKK

On to `c1cnc2c(c1)C[C@@]1(CN3CCC1CC3)O2` [AZD-0328], for which the “Responsiveness (percent quench of YFP fluorescence) of cells expressing CODA1237 compared with cells expressing CODA71” value in assay [1] is “more responsive”. For the same molecule, the “Mechanical withdrawal thresholds (up-down method) after IP injection of ligand” value in assay [2] is “recovery to non-injury baseline thresholds”.

B1: CODA1316: α7-nAChR(Gly-cys) LBD: GlyRα2 IPD, SEQ ID NO: 65 comprising R101W, Y115E, Y210W, T225I mutations (protein)
chain: MRCSPGGVWLALAASLLHVSLQGEFQRKLYKELVKNYNPLERPVANDSQPLTVYFSLSLLQIMDVDEKNQVLTTNIWLQMSWTDHYLQWNVSEYPGVKTVWFPDGQIWKPDILLENSADERFDATFHTNVLVNSSGHCQYLPPGIFKSSCPMDLKNFPMDVQTCKLKFGSWSYGGWSLDLQMQEADISGYIPNGEWDLVGIPGKRSERFWECCKEPYPDVTFTVIMRRRMGYYLIQMYIPSLLIVILSWVSFWINMDAAPARVALGITTVLTMTTQSSGSRASLPKVSYVKAIDIWMAVCLLFVFAALLEYAAVNFVSRQHKEFLRLRRRQKRQNKEEDVTRESRFNFSGYGMGHCLQVKDGTAVKATPANPLPQPPKDGDAIKKKFVDRAKRIDTISRAAFPLAFLIFNIFYWITYKIIRHEDVHKK
modifications: CHRNA7 (Cys-loop)/GLRA2
For the molecule B1, in assay [3], the “Peak Current on Manual Patch Clamp in HEK cells” value is −2779 picoamps (pA). For the same molecule, in assay [4] (FIG. 5F), the “Peak current when activated by TC-5619, compared with CODA1055” value was “increased peak current”. Also, in assay [4], the “Response to TC-5619 (dose response), compared with CODA71” value is listed as “increased response”. Also, the “Peak Current on IonFlux in HEK Cells” value in assay [5] is reported as −5520.5 picoamps (pA).

B2: CODA1055: α7-nAChR(Gly-cys) LBD: GlyRα1 IPD, SEQ ID NO: 33 comprising R101W, Y115E, Y210W mutations (protein)
chain: MRCSPGGVWLALAASLLHVSLQGEFQRKLYKELVKNYNPLERPVANDSQPLTVYFSLSLLQIMDVDEKNQVLTTNIWLQMSWTDHYLQWNVSEYPGVKTVWFPDGQIWKPDILLENSADERFDATFHTNVLVNSSGHCQYLPPGIFKSSCPMDLKNFPMDVQTCKLKFGSWSYGGWSLDLQMQEADISGYIPNGEWDLVGIPGKRSERFWECCKEPYPDVTFTVTMRRRMGYYLIQMYIPSLLIVILSWISFWINMDAAPARVGLGITTVLTMTTQSSGSRASLPKVSYVKAIDIWMAVCLLFVFSALLEYAAVNFVSRQHKELLRFRRKRRHHKSPMLNLFQEDEAGEGRFNFSAYGMGPACLQAKDGISVKGANNSNTTNPPPAPSKSPEEMRKLFIQRAKKIDKISRIGFPMAFLIFNMFYWIIYKIVRREDVHNQ
modifications: synthetic sequence of chimeric LGIC
Regarding B2, in assay [3], the “Peak Current on Manual Patch Clamp in HEK cells” value was −2176.6 picoamps (pA). Besides, in assay [4] (FIGS. 5C-5D), the “Response to acetylcholine (dose response), compared with CODA71” value was “reduced response”. The “Response to TC-5619 (dose response), compared with CODA71” value in assay [4] is “increased response”. For the same molecule, in assay [5], the “Peak Current on IonFlux in HEK Cells” value was −5074.3 picoamps (pA).

These data come from US20250163130A1, “LIGAND GATED ION CHANNELS AND METHODS OF USE” (Trames Bio, Inc., priority 2022, published 2025).
